Results taken from patent publication US20140302026A1 (published 2014).

Experiments:
[1] = target: artificial endostatin dimer (UniProt P39060); assay: SPR (Biacore)
fibronectin = fibronectin (UniProt P02751 32-2477); assay: SPR (Biacore)

Chain of fibronectin (from UniProt P02751 32-2477) (P02751 32-2477): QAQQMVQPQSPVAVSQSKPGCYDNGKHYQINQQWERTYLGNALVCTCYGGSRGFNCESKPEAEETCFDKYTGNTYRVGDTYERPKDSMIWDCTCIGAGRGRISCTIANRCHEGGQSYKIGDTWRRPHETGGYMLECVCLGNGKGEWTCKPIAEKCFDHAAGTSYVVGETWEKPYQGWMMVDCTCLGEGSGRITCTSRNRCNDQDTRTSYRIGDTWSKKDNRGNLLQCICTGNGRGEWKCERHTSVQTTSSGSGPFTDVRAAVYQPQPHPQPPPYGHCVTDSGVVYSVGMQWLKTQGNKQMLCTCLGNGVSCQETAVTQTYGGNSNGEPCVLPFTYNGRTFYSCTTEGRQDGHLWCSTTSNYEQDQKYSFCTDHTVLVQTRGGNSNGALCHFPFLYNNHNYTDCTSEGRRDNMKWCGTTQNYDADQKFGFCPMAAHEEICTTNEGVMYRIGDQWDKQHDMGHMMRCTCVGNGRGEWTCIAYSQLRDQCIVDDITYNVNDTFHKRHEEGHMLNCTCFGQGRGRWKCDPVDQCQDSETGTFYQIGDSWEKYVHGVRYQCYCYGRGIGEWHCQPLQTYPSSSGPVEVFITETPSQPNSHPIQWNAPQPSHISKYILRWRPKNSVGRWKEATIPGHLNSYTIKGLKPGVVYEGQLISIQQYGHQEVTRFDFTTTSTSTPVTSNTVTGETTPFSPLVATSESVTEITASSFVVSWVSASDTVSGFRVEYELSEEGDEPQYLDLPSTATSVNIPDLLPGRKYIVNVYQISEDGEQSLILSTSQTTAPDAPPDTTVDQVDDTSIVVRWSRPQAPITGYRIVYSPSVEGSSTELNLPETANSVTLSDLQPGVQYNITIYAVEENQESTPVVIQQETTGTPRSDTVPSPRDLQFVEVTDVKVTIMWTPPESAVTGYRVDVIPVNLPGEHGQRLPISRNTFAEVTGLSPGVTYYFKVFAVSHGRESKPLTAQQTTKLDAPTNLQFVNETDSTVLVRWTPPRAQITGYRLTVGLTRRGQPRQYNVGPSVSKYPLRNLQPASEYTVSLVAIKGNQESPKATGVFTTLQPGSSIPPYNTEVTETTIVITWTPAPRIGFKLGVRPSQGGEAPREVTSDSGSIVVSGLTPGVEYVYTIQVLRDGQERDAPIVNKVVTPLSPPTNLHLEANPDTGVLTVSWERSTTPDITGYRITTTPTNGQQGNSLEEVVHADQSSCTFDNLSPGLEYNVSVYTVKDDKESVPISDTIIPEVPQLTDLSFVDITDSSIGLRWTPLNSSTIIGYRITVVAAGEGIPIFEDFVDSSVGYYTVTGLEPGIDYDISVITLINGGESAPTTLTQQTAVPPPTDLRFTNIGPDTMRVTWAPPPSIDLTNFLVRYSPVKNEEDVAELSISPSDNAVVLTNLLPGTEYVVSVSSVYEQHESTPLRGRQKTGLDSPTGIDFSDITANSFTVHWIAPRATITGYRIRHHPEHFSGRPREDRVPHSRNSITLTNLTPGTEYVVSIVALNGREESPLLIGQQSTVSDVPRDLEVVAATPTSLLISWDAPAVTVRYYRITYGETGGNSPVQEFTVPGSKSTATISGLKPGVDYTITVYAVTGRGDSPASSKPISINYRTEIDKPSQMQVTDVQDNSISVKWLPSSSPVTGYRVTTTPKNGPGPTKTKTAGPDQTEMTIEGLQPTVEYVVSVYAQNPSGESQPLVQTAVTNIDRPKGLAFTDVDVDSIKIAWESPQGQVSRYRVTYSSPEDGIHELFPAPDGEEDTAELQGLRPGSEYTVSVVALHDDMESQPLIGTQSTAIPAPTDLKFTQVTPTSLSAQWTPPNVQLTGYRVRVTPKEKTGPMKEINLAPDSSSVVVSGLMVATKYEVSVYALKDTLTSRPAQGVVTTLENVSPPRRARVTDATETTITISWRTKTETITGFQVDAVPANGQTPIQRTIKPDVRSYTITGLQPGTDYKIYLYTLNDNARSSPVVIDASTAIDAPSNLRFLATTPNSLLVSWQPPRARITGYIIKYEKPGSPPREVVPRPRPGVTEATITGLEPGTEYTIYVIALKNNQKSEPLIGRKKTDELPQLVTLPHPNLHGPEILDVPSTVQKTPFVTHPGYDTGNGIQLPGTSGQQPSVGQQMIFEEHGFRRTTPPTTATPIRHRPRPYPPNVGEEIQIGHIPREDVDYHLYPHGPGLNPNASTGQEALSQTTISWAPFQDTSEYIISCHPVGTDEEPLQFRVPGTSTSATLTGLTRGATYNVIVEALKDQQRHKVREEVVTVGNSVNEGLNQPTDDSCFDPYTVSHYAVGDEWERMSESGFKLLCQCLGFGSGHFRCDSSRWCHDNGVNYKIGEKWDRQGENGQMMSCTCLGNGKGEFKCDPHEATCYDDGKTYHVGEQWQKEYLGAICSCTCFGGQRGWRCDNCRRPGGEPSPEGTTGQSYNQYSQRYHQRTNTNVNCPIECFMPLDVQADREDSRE

Kd [1] [nM]	Kd (fibronectin) [nM]	Molecule
4.84	–	fibronectin (from UniProt P02751 32-2477)
–	8.4	human NC-1 (hNC-1) trimer of collagen 18 (other) SGVRLWATRQAMLGQVHEVPEGWLIFVAEQEELYVRVQNGFRKVQLEARTPLPRGTDNEVAALQPPVVQLHDSNPYPRREHPHPTARPWRADDILASPPRLPEPQPYPGAPHHSSYVHLRPARPTSPPAHSHRDFQPVLHLVALNSPLSGGMRGIRGADFQCFQQARAVGLAGTFRAFLSSRLQDLYSIVRRADRAAVPIVNLKDELLFPSWEALFSGSEGPLKPGARIFSFDGKDVLRHPTWPQKSVWHGSDPNGRRLTESYCETWRTEAPSATGQASSLLGGRLLGQSAASCHHAYIVLCIENSFMTASK
–	1.35	Human VEGF (R&D) (ligand) APMAEGGGQNHHEVVKFMDVYQRSYCHPIETLVDIFQEYPDEIEYIFKPSCVPLMRCGGCCNDEGLECVPTEESNITMQIMRIKPHQGQHIGEMSFLQHNKCECRPKKDRARQENPCGPCSERRKHLFVQDPQTCKCSCKNTDSRCKARQLELNERTCRCDKPRR
